Key:
cyno ENTPD2 = assay: FACS binding to cyno ENTPD2 expressing cells; design: species or system cynomolgus monkey
Procedure: FACS screening: Specific binding of candidate antibodies to endogenously expressed ENTPD2 was assessed by flow cytometry. Cells were rinsed thoroughly with 1×PBS and treated with Accutase (Millipore #SCR005) to lift from growth plates and resuspended at approximately 1×10^5 cells/90 μL in 1×FACS buffer (2% FBS+0.1% NaN3 in PBS). In a 96-well U-bottom plate, 10 μL of 10× antibody solution in FACS buffer was pre-seeded and 90 μL of cell suspension was added. Cell were incubated for 30 minutes at 4° C., washed 1× with cold PBS and resuspended in 100 μL of 1:500 secondary antibody 1×FACS buffer (Allophycocyanin conjugated F(ab′)2 goat anti-human IgG, Fcγ specific; Jackson Immunoresearch, Cat #109-136-098). After additional incubation for 15 min at 4° C., cells were washed twice with PBS and resuspended in 100 μL of 1×FACS buffer with 4 μg/mL propidium iodide (Life Technologies, Cat #P3566). Geometric mean fluorescence intensity was calculated on live single cells using FlowJo software.

mouse ENTPD2 = biological target: T1, mouse ENTPD2 (Mus musculus, UniProt O55026); assay: Mouse ENTPD2 NIH/3T3 cell-based functional assay
T1 construct: expressed in transfected cells
T1 sequence (O55026 1-495): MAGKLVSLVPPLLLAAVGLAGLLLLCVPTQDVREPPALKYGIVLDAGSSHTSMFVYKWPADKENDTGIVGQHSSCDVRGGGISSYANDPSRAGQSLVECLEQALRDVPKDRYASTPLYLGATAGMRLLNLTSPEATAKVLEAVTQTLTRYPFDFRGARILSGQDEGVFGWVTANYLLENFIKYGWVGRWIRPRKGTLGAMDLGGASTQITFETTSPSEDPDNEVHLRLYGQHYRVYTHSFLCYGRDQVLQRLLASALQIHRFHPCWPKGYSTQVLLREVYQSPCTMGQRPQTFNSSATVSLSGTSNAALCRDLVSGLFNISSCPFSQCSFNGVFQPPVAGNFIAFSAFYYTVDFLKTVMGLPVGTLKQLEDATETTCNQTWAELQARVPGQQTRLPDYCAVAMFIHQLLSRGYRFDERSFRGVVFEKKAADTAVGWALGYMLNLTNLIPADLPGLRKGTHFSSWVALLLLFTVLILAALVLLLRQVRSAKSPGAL
Source text: Biochemical and cell-based functional assays were developed in-house to understand functional impact of anti-ENTPD2 Abs against purified extracellular domain of ENTPD2 (residues 29-462), as well as against the fully intact protein in the context of the native cell-based conformation. ENTPD2 hydrolyzes ATP to ADP, which can subsequently be detected using the HTRF Transcreener ADP2 TR-FRET Red Assay (BellBrook Labs, Madison, WI) where ENTPD2-produced ADP would compete with the ADP Tracer for binding to the anti-ADP-Tb antibody. The resulting signal is inversely proportional to the concentration of ADP in the sample.
To establish cell-based functional assays, human/cyno/mouse ENTPD2-engineered NIH/3T3 cells or RKO (ATCC, Manassa VA) colorectal cancer cells with endogenous ENTPD2 expression were plated overnight at 150, 200 and 250 cells per well for NIH/3T3 mouse, cyno and human ENTPD2 lines, respectively, or 1000 cells per well for RKO in 384-well tissue culture plate, in 30 μl per well (Perkin Elmer, Waltham, MA). […] ADP production was detected with the Transcreener ADP2 TR-FRET Red Assay (BellBrook Labs, Madison, WI) with a final concentration of 4 nM ADP2 antibody and 13.4 nM of ADP Tracer in wells (4× solution was prepared and 5 μL of “Detection Reagent Mix” was added to the quenched conditioned media). […]

Chain of cyno ENTPD2 (as listed by the source): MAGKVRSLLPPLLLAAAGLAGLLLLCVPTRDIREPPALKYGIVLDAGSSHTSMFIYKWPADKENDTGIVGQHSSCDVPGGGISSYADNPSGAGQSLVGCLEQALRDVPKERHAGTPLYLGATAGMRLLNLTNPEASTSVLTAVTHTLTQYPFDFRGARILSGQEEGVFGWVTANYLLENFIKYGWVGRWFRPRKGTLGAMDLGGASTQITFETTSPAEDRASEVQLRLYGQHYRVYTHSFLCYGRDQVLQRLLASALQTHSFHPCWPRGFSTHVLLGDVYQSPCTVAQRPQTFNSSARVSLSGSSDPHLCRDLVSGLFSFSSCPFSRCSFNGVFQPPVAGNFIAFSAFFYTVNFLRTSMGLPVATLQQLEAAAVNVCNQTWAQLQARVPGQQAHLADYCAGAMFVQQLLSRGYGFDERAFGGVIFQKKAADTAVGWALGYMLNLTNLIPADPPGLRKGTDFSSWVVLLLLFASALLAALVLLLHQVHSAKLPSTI

B1: mAb13: anti-mouse ENTPD2 monoclonal antibody, VH SEQ ID NO: 191, VL SEQ ID NO: 202 (antibody, V domains shown)
VH: QVQLVQSGAELKQPGQSVKISCKASGYTFTHYGMNWVKQAPGQGLKWMGWINTDTGNPTYADDFKGRFVFSLDTSVSTAYLQISNLKNEDTATYYCVRYGTLYSGYGFFFDSWGQGTLVTVSS
VL: DIMMTQSPSSLSVSAGEKATITCKSSQSLFNSNTNKNYLNWYLQKPGQSPKLLFYYASTRHTGVPDRFIGSGSGTDFTLTITSVQDEDLADYYCQQWYSYPWTFGPGTKLEIK
In the case of B1, the “binding to cyno ENTPD2” value (cyno ENTPD2) is reported as “no binding”, the “% Inhibition at 100 nM (±Std Err)” value (mouse ENTPD2; 100 nM antibody, mouse ENTPD2 NIH/3T3 cells) is reported as 44 ± 7.3% and the “maximum target inhibition (mouse ENTPD2 inhibition)” value (mouse ENTPD2; NIH3T3-mouse ENTPD2 engineered cell line) is reported as 44%.
